Test results reported in patent US20080280300A1, “Method” (PLASTICELL LIMITED, priority 2005, published 2008).

B1: IL-5: mouse interleukin 5 (R&D Systems), haematopoietic growth factor (protein, UniProt P04401 21-133, looked up)
Interleukin-5: MEIPMSTVVKETLTQLSAHRALLTSNETMRLPVPTHKNHQLCIGEIFQGLDILKNQTVRGGTVEMLFQNLSLIKKYIDRQKEKCGEERRRTRQFLDYLQEFLGVMSTEWAMEG
B2: TPO: murine thrombopoietin (R&D Systems), haematopoietic growth factor (protein, UniProt P40226 22-356, looked up)
Thrombopoietin: SPVAPACDPRLLNKLLRDSHLLHSRLSQCPDVDPLSIPVLLPAVDFSLGEWKTQTEQSKAQDILGAVSLLLEGVMAARGQLEPSCLSSLLGQLSGQVRLLLGALQGLLGTQLPLQGRTTAHKDPNALFLSLQQLLRGKVRFLLLVEGPTLCVRRTLPTTAVPSSTSQLLTLNKFPNRTSGLLETNFSVTARTAGPGLLSRLQGFRVKITPGQLNQTSRSPVQISGYLNRTHGPVNGTHGLFAGTSLQTLEASDISPGAFNKGSLAFNLQGGLPPSPSLAPDGHTPFPPSPALPTTHGSPPQLHPLFPDPSTTMPNSTAPHPVTMYPHPRNLSQET
B3: M-CSF: murine macrophage colony stimulating factor (R&D Systems), haematopoietic growth factor (protein, UniProt P07141 33-552, looked up)
Macrophage colony-stimulating …: KEVSEHCSHMIGNGHLKVLQQLIDSQMETSCQIAFEFVDQEQLDDPVCYLKKAFFLVQDIIDETMRFKDNTPNANATERLQELSNNLNSCFTKDYEEQNKACVRTFHETPLQLLEKIKNFFNETKNLLEKDWNIFTKNCNNSFAKCSSRDVVTKPDCNCLYPKATPSSDPASASPHQPPAPSMAPLAGLAWDDSQRTEGSSLLPSELPLRIEDPGSAKQRPPRSTCQTLESTEQPNHGDRLTEDSQPHPSAGGPVPGVEDILESSLGTNWVLEEASGEASEGFLTQEAKFSPSTPVGGSIQAETDRPRALSASPFPKSTEDQKPVDITDRPLTEVNPMRPIGQTQNNTPEKTDGTSTLREDHQEPGSPHIATPNPQRVSNSATPVAQLLLPKSHSWGIVLPLGELEGKRSTRDRRSPAELEGGSASEGAARPVARFNSIPLTDTGHVEQHEGSSDPQIPESVFHLLVPGIILVLLTVGGLLFYKWKWRSHRDPQTLDSSVGRPEDSSLTQDEDRQVELPV

Test system: myeloid progenitors derived from mouse embryonic stem cells (D3 ES cells) on microcarriers
Experiment: mESC-based cell assay for regenerative drugs: conversion of myeloid progenitors to macrophage (DQ-ovalbumin)
Conditions: 48 h, triplicate, basal level 1%
Procedure: A screen was performed to identify regenerative drugs capable of stimulating the myeloid lineages of the haematopoietic system. The screen was performed by using a series of culture steps to differentiate mouse embryonic stem cells (mESC) seeded on microcarriers into progenitors of the myeloid lineages, and subsequently subjecting these to culture conditions in the presence or absence of the lineage specific haematopoietic growth factors TPO, M-CSF and IL-5, or the control compound Vitamin C which is reported to affect cell survival but is not a haematopoietic growth factor. After 48 hours the effect on myeloid cell differentiation was assessed using the appearance of macrophages as a surrogate assay. This screen identified TPO and M-CSF as haematopoietic regenerative drugs capable of stimulating the myeloid lineage.
On the day preceding day 1 of the experiment, approximately 1.5×10^4 biotinylated micocarriers equilibrated in medium A (IMDM (Gibco), 15% KOSR, 1% NEAA, 0.5% pen/strep, 0.1 mM β-ME, 1000 U/ml LIF and 1.5×10^−4 M, 1-thioglycerol (MTG; Sigma)) were added to 100 ml of medium A containing approximately 4.5×10^6 ES cells, split into three equal aliquots placed in wells of a 100 mm square petri dish (Bibby Sterilin) and incubated overnight.
In order to prepare myeloid progenitors a two step method was employed. Beads seeded with mESC as described above were incubated in IMDM containing […] retinoic acid for 72 h. The beads were then washed in PBS and transferred to Stemline™ Haematopoietic Expansion Medium (Sigma) containing 40 ng/ml SCF, 2.5 ng TGFβ1, 5 ng/ml BMP2 and 20 ng/ml TPO and incubated for 48 h:
Beads blearing myeloid progenitors prepared as described above were mixed, washed in PBS and transferred to the Test Growth Medium (Stemline™Haematopoietic Expansion Medium (Sigma) supplemented with 30 ng/ml IL-3 and 20 ng/ml IL-6). Equal aliquots of approximately 100 beads were dispensed into the wells of a 48 well plate and incubated in the presence or absence of 50 μg/ml Vitamin C, 10 ng/ml IL-5, 20 ng/ml TPO and 20 ng/ml M-CSF. The screen was carried out in triplicate in wells of separate plates placed in the same incubator.
After 48 h, 1 mg of the macrophage assay reagent DQ-ovalbumin (Molecular Probes) was made up in 0.4 ml PBS and added to each well at a dilution of 1:100. Following incubation for at least 4 h, the medium was aspirated and replaced with PBS. The samples were examined on a Nikon TE2000-S inverted epifluorescent microscope using a-FITC filter set to quantitate microcarriers bearing large, round cells internally labelled with green fluorescence.
The results of the screen are reported as the average number (per cent) of microcarriers that were decorated with macrophage. […]

[1] = 20 ng/ml TPO or M-CSF in Test Growth Medium (IL-3, IL-6)

Molecule | average conversion to macrophage (average number (per cent) of microcarriers decorated with macrophage) [1] [%] | also measured
O=C1O[C@H]([C@@H](O)CO)C(O)=C1O [Vitamin C, Ascorbic acid, reference compound] | – | average conversion to macrophage (average number (per cent) of microcarriers decorated with macrophage) (50 μg/ml Vitamin C in Test Growth Medium (IL-3, IL-6)): 0%
B1 | – | average conversion to macrophage (average number (per cent) of microcarriers decorated with macrophage) (10 ng/ml IL-5 in Test Growth Medium (IL-3, IL-6)): 0%
B2 | 6 | –
B3 | 6 | –
